Reference: patent US20260028391A1 (HUMABS BIOMED, published 2026)
Changes are numbered by the printed parent chain. In names and notes the source's numbering stands.

B1: MPH12-v17 (VH-FRGL-D62E/VL-D25S) (antibody, V domains shown)
VH: QVQLVESGGGLVKPGGSLRLSCAASGFTFSGFYMKWIRQAPGKGLEWVSSISASGSYTNYAESVEGRFTISRDNAKNSLYLQMNSLRAEDTAVYYCARGDSYCGASACHGEFFHKWGQGTLVTVSS
VL: QSVLTQPPSVSGAPGQRVTISCTGSSSNIGADFDVHWYQQLPGTAPKLLIYGNINRPSGVPDRFSGSRSGTSAFLAITRLQAEDEADYYCQSYDRSLHYVFGAGTKVTVL
notes: also called MPH12 VH-FRGL-D62E / MPH12 VL-D25S
B2: MPH12-v34 (VH-FRGL-S63A/VL-FRGL-D25S) (antibody, V domains shown)
VH: B1 VH with E62D, S63A
VL: B1 VL with R68K, F74S, R79G, A103T
B3: MPH12-v35 (VH-FRGL-D62E/VL-FRGL-D25S) (antibody, V domains shown)
VH: B1 VH
VL: B1 VL with R68K, F74S, R79G, A103T
B4: MPH12-rIgG1-LS (antibody, V domains shown)
VH: B1 VH with A23V, E62D, I70V, Y80F, Q82L, N84S
VL: B1 VL with S26D
B5: MPH12-v29 (VH-FRGL-D62E/VL-S26A) (antibody, V domains shown)
VH: B1 VH
VL: B1 VL with S26D, S27A
notes: also called MPH12 VH-FRGL-D62E / MPH12 VL-S26A
B6: MPK204 (antibody, V domains shown)
VH: QVQLVESGGGLVKPGGSLRLSCEASGLSLSGYYMIWIRQAPGKGLEWISSISSSSNYIDYADSVKGRFTISRHNGQNTLYLQMNSLRVEDTAVYYCATEQTPSPGPFDLWGQGTLVTVSS
VL: QSVLTQPPSVSGAPGQRVTISCTGTSSNIGTGYDVHWYQQFPGTSPKLLIYRNTNRPSGVPDRFSGSKSGSSASLAIAGLQAEDEADYYCQSYDRSVSGWVFGGGTKLTVL
B7: MPK77-rIgG1-LS (antibody, V domains shown)
VH: EVQLVESGGGLVKPGGSLRLSCAASKSFSGYYMIWIRQAPGRGLEWIADISGSSTYTDYADSVKGRFTISRDNTRNTLYLQMNSLRPEDTAVYYCATEQVPSPGPFDLWGPGTLVTVSS
VL: B6 VL with T19I, T25S, T31A, S67F, S71A, S74A, A78T, V97L, V101A, L108V
B8: MPK146 (antibody, V domains shown)
VH: QVQLVESGGGLVKPGGSLRLSCAASGFTFSGYYMIWIRQAPGKGLEWIASISGSSNYIDYADSVRGRFTISRDNARNILDLQMNSLRAGDTALYYCATEQVPSPGPFDLWGQGTLVTVSS
VL: B6 VL with T25S, S26N, I29L, T31A, S65A, S71T, A78T, V97L

Tests used:
[1] = target: fusion glycoprotein (F) of the MPV (non-D280N) used in the GFP-based neutralization assay of Table 23 (metapneumovirus); experiment: cell-based or functional assay
[2] = target: fusion glycoprotein (F) of the RSV used in the GFP-based neutralization assay of Table 23 (respiratory syncytial virus); experiment: cell-based or functional assay
[3] = target: RSV fusion glycoprotein (RSV-F) (respiratory syncytial virus); experiment: biolayer interferometry (BLI), rIgG1 with M428L/N434S
[4] = target: fusion glycoprotein (F) of RSV A GFP (Tables 41 and 42) (respiratory syncytial virus A); experiment: cell-based or functional assay
[5] = target: fusion glycoprotein (F) of RSV B GFP (Tables 41 and 42) (respiratory syncytial virus B); experiment: cell-based or functional assay
[6] = target: fusion glycoprotein (F) of MPV A GFP (Tables 41 and 43) (metapneumovirus A); experiment: cell-based or functional assay
[7] = target: fusion glycoprotein of the RSV used in the neutralization assay of Example 1 (respiratory syncytial virus (strain not …)); experiment: cell-based or functional assay
[8] = target: fusion glycoprotein of the MPV D280 used in the neutralization assay of Example 3 (metapneumovirus (strain )); experiment: cell-based or functional assay

Row | Binder | MPV IC50 (ng/mL), GFP-based in vitro neutralization [1] [ng/mL] | RSV IC 50 (ng/mL), GFP-based in vitro neutralization [2] [ng/mL] | Kd [3] [nM] | also measured
1 | B1 | 30.4 | 44.9 | 0.39 | 
2 | B2 | 31.9 | 48.6 | 0.5 | 
3 | B3 | 39.9 | 57.5 | 0.46 | 
4 | B4 |  |  |  | IC50 (ng/ml), RSV A GFP neutralization [4]: 6.55 ng/mL; IC50 (ng/ml), RSV B GFP neutralization [5]: 5.23 ng/mL; IC50 (ng/ml), MPV A GFP neutralization [6]: 13 ng/mL
5 | B5 | 35.2 | 60.3 | 0.34 | 
6 | B6 |  |  |  | RSV Neutralization - IC50 [7]: 12.1 ng/mL; MPV D280 Neutralization - IC50 [8]: 6 ng/mL
7 | B7 |  |  |  | IC50 (ng/ml), RSV A GFP neutralization [4]: 6.77 ng/mL; IC50 (ng/ml), RSV B GFP neutralization [5]: 7.32 ng/mL; IC50 (ng/ml), MPV A GFP neutralization [6]: 12.9 ng/mL
8 | B8 |  |  |  | RSV Neutralization - IC50 [7]: 16.6 ng/mL; MPV D280 Neutralization - IC50 [8]: 5.4 ng/mL
